The values below come from patent publication US20030186281A1, “Modified tetracycline repressor protein compositions and methods of use” (priority 2001, published 2003).

In the data set the test system is tet operator sequence. As to the kind of experiment: β-galactosidase activity of a tetracycline-regulated promoter in transformed E. coli with revTetR, in the presence and absence of anhydrotetracycline (atc). Format: cell-based, Escherichia coli. The settings on record: for β-Galactosidase Activity, Cultured Without ATC: RevTetR isolate cultured in the absence of anhydrotetracycline (ATC); for β-Galactosidase Activity, Cultured With ATC: RevTetR isolate cultured in the presence of anhydrotetracycline (ATC). The method in brief: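 TetR(BD) chimera mutants (TetR(B) residues 1–50, TetR(D) 51–208) expressed in E. coli regulating a tet operator-controlled lacZ. β-Galactosidase measured in Miller units at 28 °C and 37 °C with and without anhydrotetracycline; reported as percent of maximal expression without Tet repressor.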

B1: TetRrevAtc4-53: revTetR(BD) D53F L55M I59S H63Q (protein)
chain: MSRLDKSKVINSALELLNEVGIEGLTTRKLAQKLGVEQPTLYWHVKNKRALLFAMAVESLARQHDYSLPAAGESWQSFLRNNAMSFRRALLRYRDGAKVHLGTRPDEKQYDTVETQLRFMTENGFSLRDGLYAISAVSHFTLGAVLEQQEHTAALTDRPAAPDENLPPLLREALQIMDSDDGEQAFLHGLESLIRGFEVQLTALLQIV
modifications: Modified tetracycline repressor
notes: revTetR(BD) D53F L55M I59S H63Q
For B1, the “β-Galactosidase Activity, Cultured Without ATC” value was determined as 87.055 and the “β-Galactosidase Activity, Cultured With ATC” value is given as 6.945.

B2: TetRrevAtc4-67: revTetR(BD) K48K D53Y A56G E58G (protein)
chain: MSRLDKSKVINSALELLNEVGIEGLTTRKLAQKLGVEQPTLYWHVKNKRALLYALGVGILARHHDYSLPAAGESWQSFLRNNAMSFRRALLRYRDGAKVHLGTRPDEKQYDTVETQLRFMTENGFSLRDGLYAISAVSHFTLGAVLEQQEHTAALTDRPAAPDENLPPLLREALQIMDSDDGEQAFLHGLESLIRGFEVQLTALLQIV
modifications: Modified tetracycline repressor
notes: revTetR(BD) K48K D53Y A56G E58G
Turning to B2, the “β-Galactosidase Activity, Cultured Without ATC” value was 61.815 and the “β-Galactosidase Activity, Cultured With ATC” value is recorded as 12.616.

B3: TetRrev6-17: revTetR(BD) R94G G96W (protein)
chain: MSRLDKSKVINSALELLNEVGIEGLTTRKLAQKLGVEQPTLYWHVKNKRALLDALAVEILARHHDYSLPAAGESWQSFLRNNAMSFRRALLRYGDWAKVHLGTRPDEKQYDTVETQLRFMTENGFSLRDGLYAISAVSHFTLGAVLEQQEHTAALTDRPAAPDENLPPLLREALQIMDSDDGEQAFLHGLESLIRGFEVQLTALLQIV
modifications: Modified tetracycline repressor
notes: revTetR(BD) R94G G96W
For the molecule B3, the “β-Galactosidase Activity, Cultured Without ATC” value was determined as 56.5081 and the “β-Galactosidase Activity, Cultured With ATC” value is listed as 12.5.

B4: TetRrevAtc4-9b: revTetR(BD) A56P V57L E58V L60L (protein)
chain: MSRLDKSKVINSALELLNEVGIEGLTTRKLAQKLGVEQPTLYWHVKNKRALLDALPLVILARHHDYSLPAAGESWQSFLRNNAMSFRRALLRYRDGAKVHLGTRPDEKQYDTVETQLRFMTENGFSLRDGLYAISAVSHFTLGAVLEQQEHTAALTDRPAAPDENLPPLLREALQIMDSDDGEQAFLHGLESLIRGFEVQLTALLQIV
modifications: Modified tetracycline repressor
notes: revTetR(BD) A56P V57L E58V L60L
In the case of B4, the “β-Galactosidase Activity, Cultured Without ATC” value was determined as 107.982 and the “β-Galactosidase Activity, Cultured With ATC” value was determined as 1.0594.

B5: TetRrevAtc4-70: revTetR(BD) D53A A61P (protein)
chain: MSRLDKSKVINSALELLNEVGIEGLTTRKLAQKLGVEQPTLYWHVKNKRALLAALAVEILPRHHDYSLPAAGESWQSFLRNNAMSFRRALLRYRDGAKVHLGTRPDEKQYDTVETQLRFMTENGFSLRDGLYAISAVSHFTLGAVLEQQEHTAALTDRPAAPDENLPPLLREALQIMDSDDGEQAFLHGLESLIRGFEVQLTALLQIV
modifications: Modified tetracycline repressor
notes: revTetR(BD) D53A A61P
B5: the “β-Galactosidase Activity, Cultured Without ATC” value worked out at 16.119 and the “β-Galactosidase Activity, Cultured With ATC” value came to 11.125.

B6: TetRrevDox4-1: revTetR(BD) D53E A54S A61P (protein)
chain: MSRLDKSKVINSALELLNEVGIEGLTTRKLAQKLGVEQPTLYWHVKNKRALLESLAVEILPRHHDYSLPAAGESWQSFLRNNAMSFRRALLRYRDGAKVHLGTRPDEKQYDTVETQLRFMTENGFSLRDGLYAISAVSHFTLGAVLEQQEHTAALTDRPAAPDENLPPLLREALQIMDSDDGEQAFLHGLESLIRGFEVQLTALLQIV
modifications: Modified tetracycline repressor
notes: revTetR(BD) D53E A54S A61P
B6: the “β-Galactosidase Activity, Cultured Without ATC” value is recorded as 36.03 and the “β-Galactosidase Activity, Cultured With ATC” value was 5.627.

B7: TetRrevDox4-2: revTetR(BD) D53E A54S I59M A61P (protein)
chain: MSRLDKSKVINSALELLNEVGIEGLTTRKLAQKLGVEQPTLYWHVKNKRALLESLAVEMLPRHHDYSLPAAGESWQSFLRNNAMSFRRALLRYRDGAKVHLGTRPDEKQYDTVETQLRFMTENGFSLRDGLYAISAVSHFTLGAVLEQQEHTAALTDRPAAPDENLPPLLREALQIMDSDDGEQAFLHGLESLIRGFEVQLTALLQIV
modifications: Modified tetracycline repressor
notes: revTetR(BD) D53E A54S I59M A61P
In the case of B7, the “β-Galactosidase Activity, Cultured Without ATC” value worked out at 58.776 and the “β-Galactosidase Activity, Cultured With ATC” value came to 9.547.

B8: TetRrevAtc4-9: revTetR(BD) L52M A56P V57L E58V L60L H188Y (protein)
chain: MSRLDKSKVINSALELLNEVGIEGLTTRKLAQKLGVEQPTLYWHVKNKRALMDAMPLVILARHHDYSLPAAGESWQSFLRNNAMSFRRALLRYRDGAKVHLGTRPDEKQYDTVETQLRFMTENGFSLRDGLYAISAVSHFTLGAVLEQQEHTAALTDRPAAPDENLPPLLREALQIMDSDDGEQAFLYGLESLIRGFEVQLTALLQIV
modifications: Modified tetracycline repressor
notes: revTetR(BD) L52M A56P V57L E58V L60L H188Y
On to B8, for which the “β-Galactosidase Activity, Cultured Without ATC” value was found to be 97.1039 and the “β-Galactosidase Activity, Cultured With ATC” value was found to be 1.8695.

B9: TetRrevAtc4-7: revTetR(BD) I59R L55L A61E H64N (protein)
chain: MSRLDKSKVINSALELLNEVGIEGLTTRKLAQKLGVEQPTLYWHVKNKRALLDALAVERLERHNDYSLPAAGESWQSFLRNNAMSFRRALLRYRDGAKVHLGTRPDEKQYDTVETQLRFMTENGFSLRDGLYAISAVSHFTLGAVLEQQEHTAALTDRPAAPDENLPPLLREALQIMDSDDGEQAFLHGLESLIRGFEVQLTALLQIV
modifications: Modified tetracycline repressor
notes: revTetR(BD) I59R L55L A61E H64N
For the molecule B9, the “β-Galactosidase Activity, Cultured Without ATC” value is 84.416 and the “β-Galactosidase Activity, Cultured With ATC” value is 27.649.

B10: TetRrev04-4: revTetR(BD) G96E V113A (protein)
chain: MSRLDKSKVINSALELLNEVGIEGLTTRKLAQKLGVEQPTLYWHVKNKRALLDALAVEILARHHDYSLPAAGESWQSFLRNNAMSFRRALLRYRDEAKVHLGTRPDEKQYDTAETQLRFMTENGFSLRDGLYAISAVSHFTLGAVLEQQEHTAALTDRPAAPDENLPPLLREALQIMDSDDGEQAFLHGLESLIRGFEVQLTALLQIV
modifications: Modified tetracycline repressor
notes: revTetR(BD) G96E V113A
Turning to B10, the “β-Galactosidase Activity, Cultured Without ATC” value is on record as 99.655 and the “β-Galactosidase Activity, Cultured With ATC” value is 19.878.

B11: TetRrev04-1: revTetR(BD) G96E K98T (protein)
chain: MSRLDKSKVINSALELLNEVGIEGLTTRKLAQKLGVEQPTLYWHVKNKRALLDALAVEILARHHDYSLPAAGESWQSFLRNNAMSFRRALLRYRDEATVHLGTRPDEKQYDTVETQLRFMTENGFSLRDGLYAISAVSHFTLGAVLEQQEHTAALTDRPAAPDENLPPLLREALQIMDSDDGEQAFLHGLESLIRGFEVQLTALLQIV
modifications: Modified tetracycline repressor
notes: revTetR(BD) G96E K98T
Regarding B11, the “β-Galactosidase Activity, Cultured Without ATC” value turned out to be 102.092 and the “β-Galactosidase Activity, Cultured With ATC” value was 44.145.

B12: TetRrevAtc4-61: revTetR(BD) L51L A56V I59H R62L (protein)
chain: MSRLDKSKVINSALELLNEVGIEGLTTRKLAQKLGVEQPTLYWHVKNKRALLDALVVEHLALHHDYSLPAAGESWQSFLRNNAMSFRRALLRYRDGAKVHLGTRPDEKQYDTVETQLRFMTENGFSLRDGLYAISAVSHFTLGAVLEQQEHTAALTDRPAAPDENLPPLLREALQIMDSDDGEQAFLHGLESLIRGFEVQLTALLQIV
modifications: Modified tetracycline repressor
notes: revTetR(BD) L51L A56V I59H R62L
For B12, the “β-Galactosidase Activity, Cultured Without ATC” value amounted to 88.785 and the “β-Galactosidase Activity, Cultured With ATC” value is on record as 23.831.

B13: TetRrevAtc4-6: revTetR(BD) D53Y L55L A56P R62L (protein)
chain: MSRLDKSKVINSALELLNEVGIEGLTTRKLAQKLGVEQPTLYWHVKNKRALLYALPVEILALHHDYSLPAAGESWQSFLRNNAMSFRRALLRYRDGAKVHLGTRPDEKQYDTVETQLRFMTENGFSLRDGLYAISAVSHFTLGAVLEQQEHTAALTDRPAAPDENLPPLLREALQIMDSDDGEQAFLHGLESLIRGFEVQLTALLQIV
modifications: Modified tetracycline repressor
notes: revTetR(BD) D53Y L55L A56P R62L
Turning to B13, the “β-Galactosidase Activity, Cultured Without ATC” value turned out to be 108.478 and the “β-Galactosidase Activity, Cultured With ATC” value is 23.873.

B14: TetRrev6-13: revTetR(BD) G96R L101I (protein)
chain: MSRLDKSKVINSALELLNEVGIEGLTTRKLAQKLGVEQPTLYWHVKNKRALLDALAVEILARHHDYSLPAAGESWQSFLRNNAMSFRRALLRYRDRAKVHIGTRPDEKQYDTVETQLRFMTENGFSLRDGLYAISAVSHFTLGAVLEQQEHTAALTDRPAAPDENLPPLLREALQIMDSDDGEQAFLHGLESLIRGFEVQLTALLQIV
modifications: Modified tetracycline repressor
notes: revTetR(BD) G96R L101I
Take B14: the “β-Galactosidase Activity, Cultured Without ATC” value is on record as 15.7835 and the “β-Galactosidase Activity, Cultured With ATC” value is 2.5043.

B15: TetRrevAtc4-71: revTetR(BD) D53T L55M 56P A61S (protein)
chain: MSRLDKSKVINSALELLNEVGIEGLTTRKLAQKLGVEQPTLYWHVKNKRALLTAMPVEILSRHHDYSLPAAGESWQSFLRNNAMSFRRALLRYRDGAKVHLGTRPDEKQYDTVETQLRFMTENGFSLRDGLYAISAVSHFTLGAVLEQQEHTAALTDRPAAPDENLPPLLREALQIMDSDDGEQAFLHGLESLIRGFEVQLTALLQIV
modifications: Modified tetracycline repressor
notes: revTetR(BD) D53T L55M 56P A61S
Take B15: the “β-Galactosidase Activity, Cultured Without ATC” value came out at 70.197 and the “β-Galactosidase Activity, Cultured With ATC” value is on record as 7.372.
